Eight molecules from article PMC7566557 (Brain Communications, 2020) can be followed below.

The target of data set [1] is Myc-(C32G)CAP2 (UniProt P40123). The data set is described as follows: proximity ligation.
Data set [2] addresses cofilin (endogenous, primary hippocampal neurons) (rat (endogenous in primary hippocampal neurons)) (UniProt P45592). Put plainly: proximity ligation.
Data set [3] deals with the molecule itself. The data set is described as follows: non-reducing SDS-PAGE with Western blot.
Data set [4] concerns the molecule itself. Put plainly: non-reducing SDS-PAGE with Western blot. The source holds these as a separate data set. For orientation: In western blotting, separated proteins are transferred to a membrane and probed.

Usually stoichiometry N stands for a count of units in the complex or per binding partner.

Where two headings read alike, the source gives them in different places.

Sequence of cofilin (endogenous, primary hippocampal neurons) (rat (endogenous in primary hippocampal neurons)) (P45592 whole entry): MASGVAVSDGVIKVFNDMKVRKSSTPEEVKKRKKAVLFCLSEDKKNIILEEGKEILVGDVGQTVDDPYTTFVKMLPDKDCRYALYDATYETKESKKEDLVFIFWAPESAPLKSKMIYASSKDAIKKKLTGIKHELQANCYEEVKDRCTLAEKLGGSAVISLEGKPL

In data set [1], “EGFP-CAP2 (from UniProt Q9CYT6 1-476) (natural protein)” yielded a PLA clusters/μm of 0.566 clusters/μm and a PLA clusters/μm (cLTP) of 0.461 clusters/μm. Turning to “Myc-(C32G)CAP2 (from UniProt P40123 1-477) (natural protein)”, in data set [2], the PLA clusters/μm is 0.0144 clusters/μm and the PLA clusters/μm (cLTP) came to 0.0315 clusters/μm.

With “Myc-CAP2 (from UniProt Q9CYT6 1-476) (natural protein)”, in data set [2], the PLA clusters/μm was 0.032 clusters/μm, the PLA clusters/μm (CTRL) was 0.0317 clusters/μm and the PLA clusters/μm (cLTP) was determined as 0.0984 clusters/μm.

B1: CAP2 (endogenous, mouse hippocampus) (natural protein)
chain: MTDMAGLMERLERAVIRLEQLSAGLDGPPRGCGEVNGVNGGVAPSVEAFDKLINSMVAEFLKNSRVLAGDVETHAEMVHGAFQAQRAFLLMVSQYQQPQENEVAVLLKPISEKIQEIQTFRERNRGSNMFNHLSAVSESIAALGWIAVSPKPGPYVKEMNDAATFYTNRVLKDYKHSDLRHVDWVRSYLNIWSELQAYIREHHTTGLTWSKTGPVASTASAFSILSSGPGLPPPPPPPPPPGPPPPFENEDKKEEPSPSRSALFAQLNQGEAITKGLRHVTDDKKTYKNPSLRAQGQIRSPTKTHTPSPTSPKSNSPQKHTPVLELEGKKWRVEYQEDRNDLVISETELKQVAYIFKCDKSTLQIKGKVNSITVDNCKKFGLVFDHVVGIVEVINSKDIQIQVMGRVPTISINKTEGCHLYLSEDALDCEIVSAKSSEMNVLVPQDDDYREFPIPEQFKTIWDGSKLVTEPAEIMA
On to B1, for which the “stoichiometry N” value in data set [3] came to 2.

B2: Myc-CAP2 (natural protein)
chain: B1 chain
Regarding B2, in data set [4], the “stoichiometry N” value worked out at 2.

B3: CAP2 (endogenous, human hippocampus) (natural protein)
chain: MANMQGLVERLERAVSRLESLSAESHRPPGNCGEVNGVIAGVAPSVEAFDKLMDSMVAEFLKNSRILAGDVETHAEMVHSAFQAQRAFLLMASQYQQPHENDVAALLKPISEKIQEIQTFRERNRGSNMFNHLSAVSESIPALGWIAVSPKPGPYVKEMNDAATFYTNRVLKDYKHSDLRHVDWVKSYLNIWSELQAYIKEHHTTGLTWSKTGPVASTVSAFSVLSSGPGLPPPPPPLPPPGPPPLFENEGKKEESSPSRSALFAQLNQGEAITKGLRHVTDDQKTYKNPSLRAQGGQTQSPTKSHTPSPTSPKSYPSQKHAPVLELEGKKWRVEYQEDRNDLVISETELKQVAYIFKCEKSTIQIKGKVNSIIIDNCKKLGLVFDNVVGIVEVINSQDIQIQVMGRVPTISINKTEGCHIYLSEDALDCEIVSAKSSEMNILIPQDGDYREFPIPEQFKTAWDGSKLITEPAEIMA
For B3, the “stoichiometry N” value in data set [3] is 2.

B4: CAP2 (endogenous, primary hippocampal neurons) (natural protein)
chain: MADMLGLMQRLEFAVSRLERLSSGLHEPPGGCGEVNSLSRGIVAPSVEAFDKLINSMVAEFLKNSRVLAGDVETHAEMVHGAFQAQRAFLLMVSQHQQPQENEVAVLLKPISEKIQEIQTFRERNRGSDMFNHLSAVSESIAALGWIAVSPKPGPYVKEMNDAATFYTNRVLRDYKHSDLRHVDWVRSYLKIWSELQAYIKEHHTTGLTWSKTGPVASTASAFSILSSGPGLPPPPPPPPPPGPPPPFENEGGKEEPSPSRSALFAQLNQGEAITKGLRHVTDDKKIYKNPSLRAQGQIRSPTKTRTPSPTSSKSNSPQKHAPVLELEGKKWRVEYQEDRNDLVISETELKQVAYIFKCDKSTLQIKGKVNSITVDNCKKFGLVFDHVVGIVEVINSKDIQIQVMGRVPTISINKTEGCHLYLSKDALDCEIVSAKSSEMNVLVPQGDDYREFPIPEQFKTIWDGSKLITEPAEIMA
Regarding B4, the “stoichiometry N” value in data set [3] was determined as 2.

B5: CAP2 (endogenous, rat hippocampus) (natural protein)
chain: B4 chain
Regarding B5, the “stoichiometry N” value in data set [3] was determined as 2.
